# Results taken from patent publication US20150344540A1, “NOVEL GLP-1 RECEPTOR AGONISTS WITH CHOLESTEROL EFFLUX ACTIVITY” (NOVO NORDISK A/S, priority 2012, published 2015).
# Where no end group is shown, it is not given here. [ ]: non-standard residue; d: D form. Aib = CC(C)(N)C(=O)O
# B1: [Aib8,Glu23,Val25,Glu34,Lys35,Val36,Lys37]-GLP-1-(7-37)-peptidyl-Glu-Gly-Leu amide (peptide)
# peptide: H[Aib]EGTFTSDVSSYLEGEAVKEFIAWLVEKVKEGL-NH2
# modifications: N-terminus assumed
# SMILES: CC[C@H](C)[C@H](NC(=O)[C@H](Cc1ccccc1)NC(=O)[C@H](CCC(=O)O)NC(=O)[C@H](CCCCN)NC(=O)[C@@H](NC(=O)[C@H](C)NC(=O)[C@H](CCC(=O)O)NC(=O)CNC(=O)[C@H](CCC(=O)O)NC(=O)[C@H](CC(C)C)NC(=O)[C@H](Cc1ccc(O)cc1)NC(=O)[C@H](CO)NC(=O)[C@H](CO)NC(=O)[C@@H](NC(=O)[C@H](CC(=O)O)NC(=O)[C@H](CO)NC(=O)[C@@H](NC(=O)[C@H](Cc1ccccc1)NC(=O)[C@@H](NC(=O)CNC(=O)[C@H](CCC(=O)O)NC(=O)C(C)(C)NC(=O)[C@@H](N)Cc1c[nH]cn1)[C@@H](C)O)[C@@H](C)O)C(C)C)C(C)C)C(=O)N[C@@H](C)C(=O)N[C@@H](Cc1c[nH]c2ccccc12)C(=O)N[C@@H](CC(C)C)C(=O)N[C@H](C(=O)N[C@@H](CCC(=O)O)C(=O)N[C@@H](CCCCN)C(=O)N[C@H](C(=O)N[C@@H](CCCCN)C(=O)N[C@@H](CCC(=O)O)C(=O)NCC(=O)N[C@@H](CC(C)C)C(N)=O)C(C)C)C(C)C
# B2: [Aib8,Glu23,Val25,Glu34,Lys35,Val36,Lys37]-GLP-1-(7-37)-peptidyl-Glu-Phe-Phe amide (peptide)
# peptide: H[Aib]EGTFTSDVSSYLEGEAVKEFIAWLVEKVKEFF-NH2
# modifications: N-terminus assumed
# SMILES: CC[C@H](C)[C@H](NC(=O)[C@H](Cc1ccccc1)NC(=O)[C@H](CCC(=O)O)NC(=O)[C@H](CCCCN)NC(=O)[C@@H](NC(=O)[C@H](C)NC(=O)[C@H](CCC(=O)O)NC(=O)CNC(=O)[C@H](CCC(=O)O)NC(=O)[C@H](CC(C)C)NC(=O)[C@H](Cc1ccc(O)cc1)NC(=O)[C@H](CO)NC(=O)[C@H](CO)NC(=O)[C@@H](NC(=O)[C@H](CC(=O)O)NC(=O)[C@H](CO)NC(=O)[C@@H](NC(=O)[C@H](Cc1ccccc1)NC(=O)[C@@H](NC(=O)CNC(=O)[C@H](CCC(=O)O)NC(=O)C(C)(C)NC(=O)[C@@H](N)Cc1c[nH]cn1)[C@@H](C)O)[C@@H](C)O)C(C)C)C(C)C)C(=O)N[C@@H](C)C(=O)N[C@@H](Cc1c[nH]c2ccccc12)C(=O)N[C@@H](CC(C)C)C(=O)N[C@H](C(=O)N[C@@H](CCC(=O)O)C(=O)N[C@@H](CCCCN)C(=O)N[C@H](C(=O)N[C@@H](CCCCN)C(=O)N[C@@H](CCC(=O)O)C(=O)N[C@@H](Cc1ccccc1)C(=O)N[C@@H](Cc1ccccc1)C(N)=O)C(C)C)C(C)C
# B3: [Aib8,Glu23,Val25,Aib36,Lys37]-des-Lys34-GLP-1-(7-37)-peptidyl-Glu-Phe-Leu amide (peptide)
# peptide: H[Aib]EGTFTSDVSSYLEGEAVKEFIAWLVG[Aib]KEFL-NH2
# modifications: N-terminus assumed
# SMILES: CC[C@H](C)[C@H](NC(=O)[C@H](Cc1ccccc1)NC(=O)[C@H](CCC(=O)O)NC(=O)[C@H](CCCCN)NC(=O)[C@@H](NC(=O)[C@H](C)NC(=O)[C@H](CCC(=O)O)NC(=O)CNC(=O)[C@H](CCC(=O)O)NC(=O)[C@H](CC(C)C)NC(=O)[C@H](Cc1ccc(O)cc1)NC(=O)[C@H](CO)NC(=O)[C@H](CO)NC(=O)[C@@H](NC(=O)[C@H](CC(=O)O)NC(=O)[C@H](CO)NC(=O)[C@@H](NC(=O)[C@H](Cc1ccccc1)NC(=O)[C@@H](NC(=O)CNC(=O)[C@H](CCC(=O)O)NC(=O)C(C)(C)NC(=O)[C@@H](N)Cc1c[nH]cn1)[C@@H](C)O)[C@@H](C)O)C(C)C)C(C)C)C(=O)N[C@@H](C)C(=O)N[C@@H](Cc1c[nH]c2ccccc12)C(=O)N[C@@H](CC(C)C)C(=O)N[C@H](C(=O)NCC(=O)NC(C)(C)C(=O)N[C@@H](CCCCN)C(=O)N[C@@H](CCC(=O)O)C(=O)N[C@@H](Cc1ccccc1)C(=O)N[C@@H](CC(C)C)C(N)=O)C(C)C
# B4: [Aib8,Glu23,Val25,Glu34,Lys35,Val36,Lys37]-GLP-1-(7-37)-peptidyl-Glu-Leu-Leu amide (peptide)
# peptide: H[Aib]EGTFTSDVSSYLEGEAVKEFIAWLVEKVKELL-NH2
# modifications: N-terminus assumed
# SMILES: CC[C@H](C)[C@H](NC(=O)[C@H](Cc1ccccc1)NC(=O)[C@H](CCC(=O)O)NC(=O)[C@H](CCCCN)NC(=O)[C@@H](NC(=O)[C@H](C)NC(=O)[C@H](CCC(=O)O)NC(=O)CNC(=O)[C@H](CCC(=O)O)NC(=O)[C@H](CC(C)C)NC(=O)[C@H](Cc1ccc(O)cc1)NC(=O)[C@H](CO)NC(=O)[C@H](CO)NC(=O)[C@@H](NC(=O)[C@H](CC(=O)O)NC(=O)[C@H](CO)NC(=O)[C@@H](NC(=O)[C@H](Cc1ccccc1)NC(=O)[C@@H](NC(=O)CNC(=O)[C@H](CCC(=O)O)NC(=O)C(C)(C)NC(=O)[C@@H](N)Cc1c[nH]cn1)[C@@H](C)O)[C@@H](C)O)C(C)C)C(C)C)C(=O)N[C@@H](C)C(=O)N[C@@H](Cc1c[nH]c2ccccc12)C(=O)N[C@@H](CC(C)C)C(=O)N[C@H](C(=O)N[C@@H](CCC(=O)O)C(=O)N[C@@H](CCCCN)C(=O)N[C@H](C(=O)N[C@@H](CCCCN)C(=O)N[C@@H](CCC(=O)O)C(=O)N[C@@H](CC(C)C)C(=O)N[C@@H](CC(C)C)C(N)=O)C(C)C)C(C)C
# B5: [Aib8,Glu23,Val25,Glu34,Lys35,Val36,Lys37]-GLP-1-(7-37)-peptidyl-Glu-Lys-Leu amide (peptide)
# peptide: H[Aib]EGTFTSDVSSYLEGEAVKEFIAWLVEKVKEKL-NH2
# modifications: N-terminus assumed
# SMILES: CC[C@H](C)[C@H](NC(=O)[C@H](Cc1ccccc1)NC(=O)[C@H](CCC(=O)O)NC(=O)[C@H](CCCCN)NC(=O)[C@@H](NC(=O)[C@H](C)NC(=O)[C@H](CCC(=O)O)NC(=O)CNC(=O)[C@H](CCC(=O)O)NC(=O)[C@H](CC(C)C)NC(=O)[C@H](Cc1ccc(O)cc1)NC(=O)[C@H](CO)NC(=O)[C@H](CO)NC(=O)[C@@H](NC(=O)[C@H](CC(=O)O)NC(=O)[C@H](CO)NC(=O)[C@@H](NC(=O)[C@H](Cc1ccccc1)NC(=O)[C@@H](NC(=O)CNC(=O)[C@H](CCC(=O)O)NC(=O)C(C)(C)NC(=O)[C@@H](N)Cc1c[nH]cn1)[C@@H](C)O)[C@@H](C)O)C(C)C)C(C)C)C(=O)N[C@@H](C)C(=O)N[C@@H](Cc1c[nH]c2ccccc12)C(=O)N[C@@H](CC(C)C)C(=O)N[C@H](C(=O)N[C@@H](CCC(=O)O)C(=O)N[C@@H](CCCCN)C(=O)N[C@H](C(=O)N[C@@H](CCCCN)C(=O)N[C@@H](CCC(=O)O)C(=O)N[C@@H](CCCCN)C(=O)N[C@@H](CC(C)C)C(N)=O)C(C)C)C(C)C
# B6: [Aib8,Glu23,Val25,Glu34,Lys35,Val36,Lys37]-GLP-1-(7-37)-peptidyl-Glu-Val-Leu amide (peptide)
# peptide: H[Aib]EGTFTSDVSSYLEGEAVKEFIAWLVEKVKEVL-NH2
# modifications: N-terminus assumed
# SMILES: CC[C@H](C)[C@H](NC(=O)[C@H](Cc1ccccc1)NC(=O)[C@H](CCC(=O)O)NC(=O)[C@H](CCCCN)NC(=O)[C@@H](NC(=O)[C@H](C)NC(=O)[C@H](CCC(=O)O)NC(=O)CNC(=O)[C@H](CCC(=O)O)NC(=O)[C@H](CC(C)C)NC(=O)[C@H](Cc1ccc(O)cc1)NC(=O)[C@H](CO)NC(=O)[C@H](CO)NC(=O)[C@@H](NC(=O)[C@H](CC(=O)O)NC(=O)[C@H](CO)NC(=O)[C@@H](NC(=O)[C@H](Cc1ccccc1)NC(=O)[C@@H](NC(=O)CNC(=O)[C@H](CCC(=O)O)NC(=O)C(C)(C)NC(=O)[C@@H](N)Cc1c[nH]cn1)[C@@H](C)O)[C@@H](C)O)C(C)C)C(C)C)C(=O)N[C@@H](C)C(=O)N[C@@H](Cc1c[nH]c2ccccc12)C(=O)N[C@@H](CC(C)C)C(=O)N[C@H](C(=O)N[C@@H](CCC(=O)O)C(=O)N[C@@H](CCCCN)C(=O)N[C@H](C(=O)N[C@@H](CCCCN)C(=O)N[C@@H](CCC(=O)O)C(=O)N[C@H](C(=O)N[C@@H](CC(C)C)C(N)=O)C(C)C)C(C)C)C(C)C
# Target: human GLP-1 receptor (human, UniProt P43220)
# Assay: cell-based or functional assay
Binder,"CRE luciferase EC50, 0% HSA [nM]","CRE luciferase EC50, 1% HSA [nM]"
B1,0.011,0.003
"HAEGTFTSDVSSYLEEEAVKEFIAWLVEKVKEF-NH2 [[Glu22,Glu23,Val25,Glu34,Lys35,Val36,Lys37]-GLP-1-(7-37)-peptidyl-Glu-Phe amide]",0.02,0.01
"HGEGTFTSDVSSYLEEEAVKEFIAWLVEKVKEF-NH2 [[Gly8,Glu22,Glu23,Val25,Glu34,Lys35,Val36,Lys37]-GLP-1-(7-37)-peptidyl-Glu-Phe amide]",0.104,0.027
"H[Aib]EGTFTSDVSSYLEEEAVKEFIAWLVEKVKEF-NH2 [[Aib8,Glu22,Glu23,Val25,Glu34,Lys35,Val36,Lys37]-GLP-1-(7-37)-peptidyl-Glu-Phe amide]",0.029,0.012
B2,0.525,0.372
"H-HAEGTFTSDVSSYLEGQAAKEFIAWLVEKVGEFLEK [[Glu34,Lys35,Val36]-GLP-1-(7-37)-peptidyl-Glu-Phe-Leu-Glu-Lys]",0.041,0.013
"HAEGTFTSDVSSYLEGEAVKEFIAWLVEKVKEFLEK [[Glu23,Val25,Glu34,Lys35,Val36,Lys37]-GLP-1-(7-37)-peptidyl-Glu-Phe-Leu-Glu-Lys]",0.098,0.031
"HAEGTFTSDVSSYLEGQAAKEFIAWLVEGVKEFLEK [[Glu34,Val36,Lys37]-GLP-1-(7-37)-peptidyl-Glu-Phe-Leu-Glu-Lys]",0.085,0.023
"HAEGTFTSDVSSYLEGQAAKEFIAWLVEKVKEFLER [[Glu34,Lys35,Val36,Lys37]-GLP-1-(7-37)-peptidyl-Glu-Phe-Leu-Glu-Arg]",0.034,0.011
"HAEGTFTSDVSSYLEGQAAKEFIAWLVEKVKEFLEK [[Glu34,Lys35,Val36,Lys37]-GLP-1-(7-37)-peptidyl-Glu-Phe-Leu-Glu-Lys]",0.03,0.011
"HAEGTFTSDVSSYLEGQAAKEFIAWLVEKVKEFLDK [[Glu34,Lys35,Val36,Lys37]-GLP-1-(7-37)-peptidyl-Glu-Phe-Leu-Asp-Lys]",0.045,0.012
"HAEGTFTSDVSSYLEGQAAKEFIAWLVEKVKEF-NH2 [[Glu34,Lys35,Val36,Lys37]-GLP-1-(7-37)-peptidyl-Glu-Phe amide]",0.016,0.005
B3,0.01,0.004
B4,0.489,0.303
"HAEGTFTSDVSSYLEGQAAKEFIAWLVEKVKEFY-NH2 [[Glu34,Lys35,Val36,Lys37]-GLP-1-(7-37)-peptidyl-Glu-Phe-Tyr amide]",0.037,0.014
B5,0.059,0.029
B6,0.198,0.065
